Results from US6638907 (BIOSTRATUM, dated 2003).

Columns and labels:
[1] = molecular target: integrin α2 on HT-1080 cells (human) (UniProt P17301); assay: cell-based or functional assay
[2] = molecular target: α6-subunit containing integrins on mouse IBE (Immortomouse brain capillary endothelial) cells; assay: cell-based or functional assay
[3] = molecular target: integrin α6β1 on bovine adrenal microvascular endothelial (BCE) cells (bovine) (UniProt P53712); assay: cell-based or functional assay
integrin α6β1 on bovine adrenal microvascular endothelial (BCE) cells (bovine), sequence (P53712 21-798): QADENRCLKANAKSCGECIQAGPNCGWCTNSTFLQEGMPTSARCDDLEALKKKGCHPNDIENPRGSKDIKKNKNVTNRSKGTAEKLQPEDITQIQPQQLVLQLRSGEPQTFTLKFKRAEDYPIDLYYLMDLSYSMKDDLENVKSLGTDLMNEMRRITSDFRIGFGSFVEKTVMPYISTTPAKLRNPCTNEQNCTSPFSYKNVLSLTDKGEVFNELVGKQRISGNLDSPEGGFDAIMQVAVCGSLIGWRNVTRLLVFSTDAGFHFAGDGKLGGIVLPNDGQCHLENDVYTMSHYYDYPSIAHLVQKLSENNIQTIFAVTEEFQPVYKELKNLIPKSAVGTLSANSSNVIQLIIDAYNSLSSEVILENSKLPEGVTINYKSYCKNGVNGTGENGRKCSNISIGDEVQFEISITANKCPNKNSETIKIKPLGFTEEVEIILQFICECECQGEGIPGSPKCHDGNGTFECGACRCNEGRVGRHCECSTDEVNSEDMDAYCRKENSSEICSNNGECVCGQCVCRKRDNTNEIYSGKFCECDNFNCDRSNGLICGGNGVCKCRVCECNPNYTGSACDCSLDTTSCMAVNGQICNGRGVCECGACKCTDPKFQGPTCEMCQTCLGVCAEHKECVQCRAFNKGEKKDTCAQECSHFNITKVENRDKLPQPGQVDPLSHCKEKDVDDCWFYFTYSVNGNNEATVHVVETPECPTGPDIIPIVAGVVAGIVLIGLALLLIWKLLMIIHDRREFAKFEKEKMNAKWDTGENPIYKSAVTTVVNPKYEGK

[4] = molecular target: T1, disulfide-linked β1/γ1 dimer of r-laminin 8 (mouse β1, human γ1) (mouse; human, UniProt P02469 22-1786; P11047 34-1609); assay: non-reducing SDS-PAGE of anti-FLAG purified r-laminin 8
T1 construct: mature; also called covalently associated dimers; the dimers
Text: The r-laminin 8 bound to anti-FLAG M2 matrix with high specificity. […] (FIG. 1) Under non-reducing conditions, the purified protein hardly entered the gel, which was to be expected as the predicted molecular weight for the mature trimer is at least 570 kD. A minor fraction of the purified trimer appeared as non-covalently associated (see discussion). In this fraction, the β1 and γ1 chains appeared as covalently associated dimers, whereas the α4 chain was non-covalently associated. Under reducing conditions, the protein appeared as a broad band at around 200 kD, which reacted on Western blots with α4, EHS, γ1, and anti-FLAG antibodies. The predicted molecular weights for mature α4, β1, and γ1 polypeptides are 200, 195, and 174 kD respectively. Laminins are heavily glycosylated, which may account for the slight discrepancy in molecular weight observed in SDS-PAGE.

integrin α2 on HT-1080 cells (human), sequence (P17301 30-1181): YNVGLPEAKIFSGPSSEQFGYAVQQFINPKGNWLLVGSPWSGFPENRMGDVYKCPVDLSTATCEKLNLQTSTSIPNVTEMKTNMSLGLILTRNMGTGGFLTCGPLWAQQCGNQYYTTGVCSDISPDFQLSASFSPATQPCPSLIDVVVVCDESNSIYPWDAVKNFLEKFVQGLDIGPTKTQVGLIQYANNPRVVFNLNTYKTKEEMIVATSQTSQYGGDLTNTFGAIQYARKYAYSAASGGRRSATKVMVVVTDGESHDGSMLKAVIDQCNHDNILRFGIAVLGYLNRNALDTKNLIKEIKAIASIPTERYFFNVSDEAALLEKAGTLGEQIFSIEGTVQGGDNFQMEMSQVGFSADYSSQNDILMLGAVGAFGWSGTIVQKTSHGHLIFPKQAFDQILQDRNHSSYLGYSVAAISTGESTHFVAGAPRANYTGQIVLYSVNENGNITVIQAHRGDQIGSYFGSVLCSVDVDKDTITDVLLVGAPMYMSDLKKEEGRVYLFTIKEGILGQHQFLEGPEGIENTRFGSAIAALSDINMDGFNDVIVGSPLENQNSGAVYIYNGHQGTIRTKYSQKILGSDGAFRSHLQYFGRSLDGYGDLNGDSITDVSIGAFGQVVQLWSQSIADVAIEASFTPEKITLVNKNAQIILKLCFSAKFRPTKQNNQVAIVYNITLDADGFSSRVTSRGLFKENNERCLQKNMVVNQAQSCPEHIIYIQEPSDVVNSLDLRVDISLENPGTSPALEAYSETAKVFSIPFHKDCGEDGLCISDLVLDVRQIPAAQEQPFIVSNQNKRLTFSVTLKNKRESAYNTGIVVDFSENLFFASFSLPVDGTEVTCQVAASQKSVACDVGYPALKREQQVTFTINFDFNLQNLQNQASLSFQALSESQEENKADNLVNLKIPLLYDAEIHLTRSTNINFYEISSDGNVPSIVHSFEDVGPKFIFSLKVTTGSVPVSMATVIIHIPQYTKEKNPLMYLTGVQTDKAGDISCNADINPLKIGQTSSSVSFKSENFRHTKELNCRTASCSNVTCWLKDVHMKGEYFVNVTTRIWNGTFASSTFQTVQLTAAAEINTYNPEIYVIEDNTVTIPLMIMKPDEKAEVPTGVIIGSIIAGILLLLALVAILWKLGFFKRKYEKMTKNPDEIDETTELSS

collagen type IV from EHS-tumor (from UniProt P02463 28-1669; P08122 26-1707)
HT-1080 cell adhesion to Type IV collagen with anti-integrin α2 mAb, percent of control [1]: 50%

recombinant laminin 8 (human α4 chain with C-terminal FLAG epitope, mouse β1 chain, human γ1 chain) (from UniProt Q16363 25-1823; P02469 22-1786; P11047 34-1609)
IBE cell adhesion to coated r-laminin 8 with anti-α6 mAb, percent blocked [2]: 60%
BCE cell adhesion to coated r-laminin 8 with anti-β1 mAb AIIB2, percent blocked [3]: 70%

B1: human laminin α4 chain containing a C-terminal FLAG epitope (other)
chain: ASGDDNAFPFDIEGSSAVGRQDPPETSEPRVALGRLPPAAEKCNAGFFHTLSGECVPCDCNGNSNECLDGSGYCVHCQRNTTGEHCEKCLDGYIGDSIRGAPQFCQPCPCPLPHLANFPESCYRKNGAVRCICNENYAGPNCERCAPGYYGNPFLIGSTCKKCDCSGNSDPNLIFEDCDEVTGQCRNCLRNTTGFKCERCAPGYYGDARIAKNCAVCNCGGGPCDSVTGECLEEGFEPPTGCDKCVWDLTDDLRLAALSIEEGKSGVLSVSSGAAAHRHVNEINATIYLLKTKLSERENQYALRKIQINNAENTMKSLLSDVEELVEKENQASRKGQLVQKESMDTINHASQLVEQAHDMRDKIQEINNKMLYYGEEHELSPKEISEKLVLAQKMLEEIRSRQPFFTQRELVDEEADEAYELLSQAESWQRLHNETRTLFPVVLEQLDDYNAKLSDLQEALDQALNYVRDAEDMNRATAARQRDHEKQQERVREQMEVVNMSLSTSADSLTTPRLTLSELDDIIKNASGIYAEIDGAKSELQVKLSNLSNLSHDLVQEAIDHAQDLQQEANELSRKLHSSDMNGLVQKALDASNVYENIVNYVSEANETAEFALNTTDRIYDAVSGIDTQIIYHKDESENLLNQARELQAKAESSSDEAVADTSRRVGGALARKSALKTRLSDAVKQLQAAERGDAQQRLGQSRLITEEANRTTMEVQQATAPMANNLTNWSQNLQHFDSSAYNTAVNSARDAVRNLTEVVPQLLDQLRTVEQKRPASNVSASIQRIRELIAQTRSVASKIQVSMMFDGQSAVEVHSRTSMDDLKAFTSLSLYMKPPVKRPELTETADQFILYLGSKNAKKEYMGLAIKNDNLVYVYNLGTKDVEIPLDSKPVSSWPAYFSIVKIERVGKHGKVFLTVPSLSSTAEEKFIKKGEFSGDDSLLDLDPEDTVFYVGGVPSNFKLPTSLNLPGFVGCLELATLNNDVISLYNFKHIYNMDPSTSVPCARDKLAFTQSRAASYFFDGSGYAVVRDIPRRGKFGQVTRFDIEVRTPADNGLILLMVNGSMFFRLEMRNGYLHVFYDFGFSSGRVHLEDTLKKAQINDAKYHEISIIYHNDKKMILVVDRRHVKSMDNEKMKIPFTDIYIGGAPPEILQSRALRAHLPLDINFRGCMKGFQFQKKDFNLLEQTETLGVGYGCPEDSLISRRAYFNGQSFIASIQKISFFDGFEGGFNFRTLQPNGLLFYYASGSDVFSISLDNGTVIMDVKGIKVQSVDKQYNDGLSHFVISSVSPTRYELIVDKSRVGSKNPTKGKIEQTQASEKKFYFGGSPISAQYANFTGCISNAYFTRVDRDVEVEDFQRYTEKVHTSLYECPIESSPLFLLHKKGKNLSKPKASQNKKGGKSKDAPSWDPVALKLPERNTPRNSHCHLSNSPRAIEHAYQYGGTANSRQEFEHLKGDFGAKSQFSIRLRTRSSHGMIFYVSDQEENDFMTLFLAHGRLVYMFNVGHKKLKIRSQEKYNDGLWHDVIFIRERSSGRLVIDGLRVLEESLPPTEATWKIKGPIYLGGVAPGKAVKNVQINSIYSFSGCLSNLQLNGASITSASQTFSVTPCFEGPMETGTYFSTEGGYVVLDESFNIGLKFEIAFEVRPRSSSGTLVHGHSVNGEYLNVHMKNGQVIVKVNNGIRDFSTSVTPKQSLCDGRWHRITVIRDSNVVQLDVDSEVNHVVGPLNPKPIDHREPVFVGGVPESLLTPRLAPSKPFTGCIRHFVIDGHPVSFSKAALVSGAVSINSCPAADYKDDDDK
notes: The α4 chain alone, as the non-crosslinked partner in the minor fraction of r-laminin 8; also called FLAG-tagged α4 chain
binding result [4]: binds
